The supplement of paper PMC11316812
± gives the standard deviation of the averaged measurements.

Assays:
[1] = system: hTERT-HMEC; assay: percentage of EdU-negative (G0-arrested) nuclei per well, 72 h; higher = more G0 arrest; settings: reference: sequence is the full UniProt precursor, the tested protein was the secreted form or ectodomain
[2] = system: MCF7; assay: as above; settings: reference: sequence is the full UniProt precursor, the tested protein was the secreted form or ectodomain
[3] = protein concentration 0.018725 µM
[4] = protein concentration 0.18725 µM
[5] = protein concentration 0.03125 µM
[6] = protein concentration 0.3125 µM
[7] = protein concentration 0.0225 µM
[8] = protein concentration 0.01975 µM
[9] = protein concentration 0.1975 µM
[10] = protein concentration 0.00975 µM
[11] = protein concentration 0.0975 µM
[12] = protein concentration 0.0308875 µM
[13] = protein concentration 0.308875 µM
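Note: secreted proteins added to cultured cells, EdU pulse at the end, nuclei found by Hoechst imaging, EdU status from nuclear versus surrounding ring intensity ratio, PBS as neutral control.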

## MQRGAALCLRLWLCLGLLDGLVSGYSMTPPTLNITEESHVIDTGDSLSISCRGQHPLEWAWPGAQEAPATGDKDSEDTGVVRDCEGTDARPYCKVLLLHEVHANDTGSYVCYYKYIKARIEGTTAASSYVFVRDFEQPFINKPDTLLVNRKDAMWVPCLVSIPGLNVTLRSQSSVLWPDGQEVVWDDRRGMLVSTPLLHDALYLQCETTWGDQDFLSNPFLVHITGNELYDIQLLPRKSLELLVGEKLVLNCTVWAEFNSGVTFDWDYPGKQAERGKWVPERRSQQTHTELSSILTIHNVSQHDLGSYVCKANNGIQRFRESTEVIVHENPFISVEWLKGPILEATAGDELVKLPVKLAAYPPPEFQWYKDGKALSGRHSPHALVLKEVTEASTGTYTLALWNSAAGLRRNISLELVVNVPPQIHEKEASSPSIYSRHSRQALTCTAYGVPLPLSIQWHWRPWTPCKMFAQRSLRRRQQQDLMPQCRDWRAVTTQDAVNPIESLDTWTEFVEGKNKTVSKLVIQNANVSAMYKCVVSNKVGQDERLIYFYVTTIPDGFTIESKPSEELLEGQPVLLSCQADSYKYEHLRWYRLNLSTLHDAHGNPLLLDCKNVHLFATPLAASLEEVAPGARHATLSLSIPRVAPEHEGHYVCEVQDRRSHDKHCHKKYLSVQALEAPRLTQNLTDLLVNVSDSLEMQCLVAGAHAPSIVWYKDERLLEEKSGVDLADSNQKLSIQRVREEDAGRYLCSVCNAKGCVNSSASVAVEGSEDKGSMEIVILVGTGVIAVFFWVLLLLIFCNMRRPAHADIKTGYLSIIMDPGEVPLEEQCEYLSYDASQWEFPRERLHLGRVLGYGAFGKVVEASAFGIHKGSSCDTVAVKMLKEGATASEHRALMSELKILIHIGNHLNVVNLLGACTKPQGPLMVIVEFCKYGNLSNFLRAKRDAFSPCAEKSPEQRGRFRAMVELARLDRRRPGSSDRVLFARFSKTEGGARRASPDQEAEDLWLSPLTMEDLVCYSFQVARGMEFLASRKCIHRDLAARNILLSESDVVKICDFGLARDIYKDPDYVRKGSARLPLKWMAPESIFDKVYTTQSDVWSFGVLLWEIFSLGASPYPGVQINEEFCQRLRDGTRMRAPELATPAIRRIMLNCWSGDPKARPAFSELVEILGDLLQGRGLQEEEEVCMAPRSSQSSEEGSFSQVSTMALHIAQADAEDSPPSLQRHSLAARYYNWVSFPGCLARGAETRGSSRMKTFEEFPMTPTTYKGSVDNQTDSGMVLASEEFEQIESRHRQESGFSCKGPGQNVAVTRAHPDSQGRRRRPERGARGGQVFYNSEYGELSEPSEEDHCSPSARVTFFTDNSY
[1]; [3]
  percentage of EdU-negative: 5.19 ± 0.73%
[1]; [4]
  percentage of EdU-negative: 6.63 ± 1.2%
[2]; [3]
  percentage of EdU-negative: 25.2 ± 1.4%
[2]; [4]
  percentage of EdU-negative: 25.66 ± 0.24%

## MKLWDVVAVCLVLLHTASAFPLPAGKRPPEAPAEDRSLGRRRAPFALSSDSNMPEDYPDQFDDVMDFIQATIKRLKRSPDKQMAVLPRRERNRQAAAANPENSRGKGRRGQRGKNRGCVLTAIHLNVTDLGLGYETKEELIFRYCSGSCDAAETTYDKILKNLSRNRRLVSDKVGQACCRPIAFDDDLSFLDDNLVYHILRKHSAKRCGCI
[1]; [5]
  percentage of EdU-negative: 5.08 ± 0.53%
[1]; [6]
  percentage of EdU-negative: 5.86 ± 0.094%
[2]; [5]
  percentage of EdU-negative: 24.9 ± 0.95%
[2]; [6]
  percentage of EdU-negative: 29.1 ± 0.3%

## MWVLGIAATFCGLFLLPGFALQIQCYQCEEFQLNNDCSSPEFIVNCTVNVQDMCQKEVMEQSAGIMYRKSCASSAACLIASAGYQSFCSPGKLNSVCISCCNTPLCNGPRPKKRGSSASALRPGLRTTILFLKLALFSAHC [Q8N2G4]
[1]; [7]
  percentage of EdU-negative: 5.36 ± 1.2%
[1]; protein concentration 0.225 µM
  percentage of EdU-negative: 4.964 ± 0.041%
[2]; [7]
  percentage of EdU-negative: 25.13 ± 0.22%
[2]; protein concentration 0.225 µM
  percentage of EdU-negative: 25.1 ± 1.1%

## MICLVLTIFANLFPAACTGAHERTFLAVKPDGVQRRLVGEIVRRFERKGFKLVALKLVQASEELLREHYAELRERPFYGRLVKYMASGPVVAMVWQGLDVVRTSRALIGATNPADAPPGTIRGDFCIEVGKNLIHGSDSVESARREIALWFRADELLCWEDSAGHWLYE
[1]; [7]
  percentage of EdU-negative: 4.25 ± 0.15%
[1]; protein concentration 0.225 µM
  percentage of EdU-negative: 5.77 ± 0.68%
[2]; [7]
  percentage of EdU-negative: 25.5 ± 3.9%
[2]; protein concentration 0.225 µM
  percentage of EdU-negative: 22.9 ± 1.8%

## MKPPFLLALVVCSVVSTNLKMVSKRNSVDGCIDWSVDLKTYMALAGEPVRVKCALFYSYIRTNYSTAQSTGLRLMWYKNKGDLEEPIIFSEVRMSKEEDSIWFHSAEAQDSGFYTCVLRNSTYCMKVSMSLTVAENESGLCYNSRIRYLEKSEVTKRKEISCPDMDDFKKSDQEPDVVWYKECKPKMWRSIIIQKGNALLIQEVQEEDGGNYTCELKYEGKLVRRTTELKVTALLTDKPPKPLFPMENQPSVIDVQLGKPLNIPCKAFFGFSGESGPMIYWMKGEKFIEELAGHIREGEIRLLKEHLGEKEVELALIFDSVVEADLANYTCHVENRNGRKHASVLLRKKDLIYKIELAGGLGAIFLLLVLLVVIYKCYNIELMLFYRQHFGADETNDDNKEYDAYLSYTKVDQDTLDCDNPEEEQFALEVLPDVLEKHYGYKLFIPERDLIPSGTYMEDLTRYVEQSRRLIIVLTPDYILRRGWSIFELESRLHNMLVSGEIKVILIECTELKGKVNCQEVESLKRSIKLLSLIKWKGSKSSKLNSKFWKHLVYEMPIKKKEMLPRCHVLDSAEQGLFGELQPIPSIAMTSTSATLVSSQADLPEFHPSDSMQIRHCCRGYKHEIPATTLPVPSLGNHHTYCNLPLTLLNGQLPLNNTLKDTQEFHRNSSLLPLSSKELSFTSDIW [Q9NP60]
[1]; [8]
  percentage of EdU-negative: 4.91 ± 0.99%
[1]; [9]
  percentage of EdU-negative: 8.95 ± 0.26%
[2]; [8]
  percentage of EdU-negative: 24.9 ± 2.6%
[2]; [9]
  percentage of EdU-negative: 26.8 ± 1.9%

## MNLWLLACLVAGFLGAWAPAVHTQGVFEDCCLAYHYPIGWAVLRRAWTYRIQEVSGSCNLPAAIFYLPKRHRKVCGNPKSREVQRAMKLLDARNKVFAKLHHNTQTFQAGPHAVKKLSSGNSKLSSSKFSNPISSSKRNVSLLISANSGL
[1]; [10]
  percentage of EdU-negative: 4.38 ± 0.21%
[1]; [11]
  percentage of EdU-negative: 5.5688 ± 0.0047%
[2]; [10]
  percentage of EdU-negative: 24.3 ± 1.7%
[2]; [11]
  percentage of EdU-negative: 25.01 ± 0.22%

## MGSGRRALSAVPAVLLVLTLPGLPVWAQNDTEPIVLEGKCLVVCDSNPATDSKGSSSSPLGISVRAANSKVAFSAVRSTNHEPSEMSNKTRIIYFDQILVNVGNFFTLESVFVAPRKGIYSFSFHVIKVYQSQTIQVNLMLNGKPVISAFAGDKDVTREAATNGVLLYLDKEDKVYLKLEKGNLVGGWQYSTFSGFLVFPL [Q9NTU7]
[1]; [7]
  percentage of EdU-negative: 5.12 ± 0.27%
[1]; protein concentration 0.225 µM
  percentage of EdU-negative: 4.5 ± 0.36%
[2]; [7]
  percentage of EdU-negative: 23.4 ± 2%
[2]; protein concentration 0.225 µM
  percentage of EdU-negative: 25.2 ± 2.2%

## MALQRTHSLLLLLLLTLLGLGLVQPSYGQDGMYQRFLRQHVHPEETGGSDRYCNLMMQRRKMTLYHCKRFNTFIHEDIWNIRSICSTTNIQCKNGKMNCHEGVVKVTDCRDTGSSRAPNCRYRAIASTRRVVIACEGNPQVPVHFDG
[1]; [12]
  percentage of EdU-negative: 4.98 ± 0.26%
[1]; [13]
  percentage of EdU-negative: 4.74 ± 0.71%
[2]; [12]
  percentage of EdU-negative: 25 ± 2.2%
[2]; [13]
  percentage of EdU-negative: 25.6 ± 4.4%
